According to CN115558029A:
Where two headings read alike, the source gives them in different places.

What was measured:
[1] = biological target: PD-1 on Jurkat/PD-1细胞(Promega) (UniProt Q15116); experiment: cell-based or functional assay
[2] = biological target: 人PD-1蛋白(北京百普赛斯，货号PD1-H5221) (human) (UniProt Q15116); experiment: binding ELISA on coated PD-1 protein
[3] = biological target: 人PD-1蛋白(北京百普赛斯，货号PD1-H5221) (human) (UniProt Q15116); experiment: binding ELISA on coated PD-1 protein; remark: listed apart in the source
[4] = biological target: PD-1 on Jurkat/PD-1细胞(Promega) (UniProt Q15116); experiment: cell-based or functional assay; remark: listed apart in the source
[5] = biological target: PD-1 on Jurkat/PD-1细胞(Promega) (UniProt Q15116); experiment: cell-based or functional assay; remark: listed apart in the source
[6] = biological target: 人PD-1蛋白(北京百普赛斯，货号PD1-H5221) (human) (UniProt Q15116); experiment: binding ELISA, human PD-1 protein coated at 1 μg/mL, anti-human IgG (Fc)-HRP
[7] = biological target: 人PD-1蛋白(北京百普赛斯，货号PD1-H5221) (human) (UniProt Q15116); experiment: binding ELISA on coated PD-1 protein; remark: listed apart in the source
[8] = biological target: 人PD-1蛋白(北京百普赛斯，货号PD1-H5221) (human) (UniProt Q15116); experiment: binding ELISA on coated PD-1 protein; remark: listed apart in the source

EC50, PD-1报告基因法 [1]: 0.4 µg/mL
EC50 [2]: 0.0053 µg/mL
EC50 [3]: 0.0073 µg/mL
EC50, PD-1报告基因法 [4]: 0.2 µg/mL
EC50, 报告基因法 (CHO/PD-L1 + Jurkat/PD-1, One-Glo luminescence) [4]: 0.2 to 0.5 µg/mL
EC50, PD-1报告基因法 [5]: 0.5 µg/mL
EC50 [6]: 0.0202 µg/mL
EC50 [7]: 0.0164 µg/mL
EC50 [8]: 0.0122 µg/mL
B1: PD-1VHH抗体克隆huVHH3-3 (VHH, part only; not given: format as tested, part only)
VHH, part: EVQLVESGGGLVQPGGSLRLSCAASGRTSSMYAMGWFRQAPGNEREFVAGIGWENNTPYYARSVEGRFTISRDNVKNTVFLQMNRLRAEDTAVYYCAAQIGISGTLGDYWGQGTQVTVSS
